Laboratory results: the supplement of paper PMC9170038

Test system: MS2 coat protein
Assay: apparent KD of MS2 coat protein; designed switch direction (-1 OFF switch, 1 ON switch): -1; higher = weaker reporter binding
How it was run: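 Three titration conditions were used: no input, 200 uM small-molecule ligand, and an oligonucleotide input. In each, SNAP-549-labelled MS2 coat protein was raised from 0.7 or 1.5 nM, doubling, to 3 µM over designed RNA switches transcribed on Illumina chips by stalled E. coli RNA polymerase. Curve fits of normalised cluster fluorescence gave values whose per-design median over clusters is the apparent KD.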

[1] = Eterna round: R95, input ligand: FMN 200 uM
[2] = Eterna round: R95, input ligand: microRNA oligo, concentration not stated
[3] = Eterna round: R95, input ligand: none
[4] = input ligand: microRNA oligo, concentration not stated

Sequence | apparent KD of MS2 coat protein [1] | apparent KD of MS2 coat protein [2] | apparent KD of MS2 coat protein [3] | apparent KD of MS2 coat protein (input ligand: FMN 200 uM) | apparent KD of MS2 coat protein [4] | apparent KD of MS2 coat protein (input ligand: none)
AUAACUCUAGUCAGGAUAUGCGAGCAAGGAUUAGAGCAGAAGGGACAUGAGGAUCACCCAUGUGGUAGCUGGGU [Indiraa] (puzzle: Brourd's mod of Exclusion 4) | 33.6 nM | 47.3 nM | 77.5 nM |  |  | 
CUAGCGAUUGUAGGAUAUCGGACUGUUUCAGUCUGAGAAGGACAUGAGGAUCACCCAUGUGAAGCAACGUGAGUUGCACGCUAG [JL ENG1 3.83] (Eterna round: R96, puzzle: Exclusion NG 1) |  |  |  | 47.9 nM | 13.8 nM | 22 nM
GGUCAAGAACAGCGCCGCGCUGCCCUUGACCGCUCAUUUACAUGAGGAUCACCCAUGUUUUUUGCUUGUCUUGUUUC [Tiordiri] (puzzle: Sensor v3, turn-off variant 2) | 20.6 nM | 101 nM | 23.7 nM |  |  | 
AAUAACAAGCUGAUCCUAAACAUGAGGAUCACCCAUGUGCUCGUCUUGUAAAGUACUAUCACGAAAGUGAUAGUACA [MOD7 of my MOD of Eli's v1-59 (mutation at 11 A to U)] (Eterna round: R97, puzzle: Sensor, turn-off variant 1) |  |  |  | 118 nM |  | 142 nM
UAGGAGUCAGGAUAUGCGAGAGAUGGAAGAAAGGGAAGAGAGCAGAAGGGACAUGAGGAUCACCCAUGUAAGGA [JR_Exclu4_Sub090] (puzzle: Exclusion 4) | 34.2 nM | 35.7 nM | 36.1 nM |  |  | 
AACAGUGAUGAGGAUAUAUAAAGAGAAAAGAAAAUAGAAGGUGUCACAUGAGGAUCACCCAUGUGUUCUUCAGA [EX6 A.12] (Eterna round: R97, puzzle: Exclusion 6) |  |  |  | 17.4 nM |  | 16.5 nM
GUCAAACAUGAGGAUCACCCAUGUGAGGAUAUUUAGGAUAGGAUAUGACUACUACUCCGAAGAAGGCACUCGGG [Eternabot (L1) Solution 7] (Eterna round: R97, puzzle: Exclusion 1) |  |  |  | 102 nM |  | 38.5 nM
UAUAUAUAGUAAGGAUAUGUAUUAAUUUUAUUAACAGAAGGUACUGACAUGAGGAUCACCCAUGUUUUAGUGUGGGCAUGUAGA [JMF's solution 90] (Eterna round: R96, puzzle: Exclusion NG 1) |  |  |  |  | 69.4 nM | 
CCCAUGCCUGAGGAUAUGCUGUACAAAAGUACUGCAGAAGGCGGGACAUGAGGAUCACCCAUGUGGCGAAAGCC [Omei Ex G6] (Eterna round: R97, puzzle: Exclusion 6) |  |  |  | 67 nM |  | 326 nM
ACCUCACAUGAGGAUCACCCAUGUUAGGAUAUCUCGGUGCCCUGCAGGCAGUGGCACCAGAGAAGGAACGUGCA [Anbearqu] (puzzle: Exclusion 1) |  | 17.2 nM |  |  |  | 
ACAGCAUAGUUAGGAUAUUGCCGACACUGUGUGUUCCUACACAUGAGGAUCACCCAUGUGAAGCGCGAGAAGGAACUAACUGAA [Eternabot solution 8] (Eterna round: R96, puzzle: Exclusion NG 2) |  |  |  | 430 nM | 179 nM | 348 nM
AGCUGAGCAGGAUAUACAUGAGGAUCACCCAUGUAUUCUCGAAGGCGCCGCAUAGCAUGUAGAAGGGUUUAGAU [Eternabot (L1) Solution 20] (Eterna round: R97, puzzle: Exclusion 3) |  |  |  | 17 nM |  | 23.2 nM
CUUCUGUCAGGAUAUGCGAAUCACCGCUGGGUCAGCGGCGAGCAGAAGGGACAUGAGGAUCACCCAUGUAAAAU [Quriveer] (Eterna round: R97, puzzle: Exclusion 4) |  |  |  | 211 nM |  | 51.3 nM
GCACUGGCAGGAUAUACAUGAGGAUCACCCAUGUGAUCCCUUAGGUACAAAAGUACAAGUAGAAGGGCCUGUGC [Omei Ex3 Model Bachelor's Dilema v44] (Eterna round: R97, puzzle: Exclusion 3) |  |  |  | 52.2 nM |  | 845 nM
GCAUGUCUUAAGGAUAUGCUAAGGCGUGAGCCAGCAGAAGGUAAGACAUGAGGAUCACCCAUGUUUUCCUAAAA [jl-ex6-4.33 ViennaUCT mod] (Eterna round: R97, puzzle: Exclusion 6) |  |  |  | 68.5 nM |  | 18.9 nM
UUAAUGUCAGGAUAUGCUUAAUAUAUUUUAUUAUAAUAUAUACAUGAGGAUCACCCAUGUAGAAGGGACAUUAU [LRO-Excl2-04-Fireball XL5] (Eterna round: R97, puzzle: Exclusion 2) |  |  |  | 26.4 nM |  | 39.1 nM
CGACUAAACGUGAGGAUAUGCGGUGCCAGAACAUUGCAGAAGGCACAUGAGGAUCACCCAUGUGUGGGAGAAGA [Eternabot (L1) Solution 43] (Eterna round: R97, puzzle: Brourd's mod of Exclusion 4) |  |  |  | 241 nM |  | 103 nM

Sequence | apparent KD of MS2 coat protein [1] | apparent KD of MS2 coat protein [2] | apparent KD of MS2 coat protein [3] | apparent KD of MS2 coat protein (input ligand: FMN 200 uM) | apparent KD of MS2 coat protein [4] | apparent KD of MS2 coat protein (input ligand: none)
GCCGAGUGAGGAUAUACAUGAGGAUCACCCAUGUAAACACGAAAGCAAGUGUCCCUCAGUAGAAGGCGCCUGGA [Aerusesxe] (puzzle: Exclusion 3) |  | 14.8 nM |  |  |  | 
GAACUAAAGCAAAGCUUUAGUCGUACAUGAGGAUCACCCAUGUAGGAUAUGGUAGGCAAAGCAUACCAGAAGGACAGAGUGAUC [Mat - Exclusion NG 3 - Mod of JL - D63] (Eterna round: R96, puzzle: Exclusion NG 3) |  |  |  | 211 nM | 134 nM | 371 nM
AAAUGGAACAGAGGAUAUAGGGACAUGAGGAUCACCCAUGUUUUUUUUGGUUGGGUGGGUUUGGGCUAGAAGGCUGGGAAGAAA [Kawasakiqro] (Eterna round: R96, puzzle: Exclusion NG 2) |  |  |  | 30.2 nM | 26.8 nM | 33 nM
UGGUAACAUGAGGAUCACCCAUGUCAGGAUAUCAGUAAGAAGAGAUUAGAGUAGAAUAUGAGAAGGGACUAUAG [Excluse me! 1 - Jieux - Exclusion 1] (puzzle: Exclusion 1) |  | 35.8 nM |  |  |  | 
GAUCCACAUGAGGAUCACCCAUGUGAGGAUAUGAUACUAUGUACUUCGGUACAUAGUAUCAGAAGGCACGGGUC [Ex1-3: 55] (puzzle: Exclusion 1) |  | 72.5 nM |  |  |  | 
ACAAAGGUAGGAUAUCGGACUAUGGACAUGAGGAUCACCCAUGUGCGUCCAAUGCCCAACCGAGAAGGACCAACAG [Isindiedbe] (puzzle: Exclusion 5) |  | 43.7 nM |  |  |  | 
AACCUGAGGCAAAGCUUUAGGUGUACAUGAGGAUCACCCAUGUAGGAUAUGGUAGGCAAAGCUUACCAGAAGGACAUUUAGGUU [Mat - Exclusion NG 3 - Mod of JL - D44] (Eterna round: R96, puzzle: Exclusion NG 3) |  |  |  | 81.6 nM | 36.5 nM | 52.1 nM
GUCAUCAAACAUGGGAUCAACAUGAGGAUCACCCAUGUUGACAAGUUUUUUGCUCGUCUUAUAAUACGUUUGAUGAC [Mod-Jx] (Eterna round: R97, puzzle: Sensor, turn-off variant 1) |  |  |  | 16.2 nM |  | 15.5 nM
CUGAACCCGGUAGGAUAUAUUGUGGGCAAGCAUGGAACAACAUGAGGAUCACCCAUGUAAUUUAGGUAGAAGGGCCAAAAGAUU [Excl-NG2-LRO08] (Eterna round: R96, puzzle: Exclusion NG 2) |  |  |  | 56.8 nM | 52.7 nM | 55.3 nM
ACAUGAGGAUCACCCAUGUAAACAUAAUGGCUGAUGUAGAGUCAGGAUAUGUGUGGCUAACAAUCGCAGAAGGGACAAGACUGG [Deportation 31 - Jieux - Exclusion NG 3] (Eterna round: R96, puzzle: Exclusion NG 3) |  |  |  | 23.5 nM | 19.2 nM | 31.8 nM
GAAAAGGUAGAGGAUAUUUCAGAUCAAAGCUGCAAAGAAGGCUGCACAUGAGGAUCACCCAUGUGGUCAAUAAA [Mod of Quesina 12 - Jieux - Exclusion 6] (Eterna round: R97, puzzle: Exclusion 6) |  |  |  | 59.7 nM |  | 20.9 nM
ACGAUGACUGAAAAGUGUAAACUGACAUGAGGAUCACCCAUGUAGGAUAUGGCUACGAAAAGUAGUCAGAAGGGCAUGUCAUCA [Omei Exc(NG) 3 Av10] (Eterna round: R96, puzzle: Exclusion NG 3) |  |  |  | 14.3 nM | 13.4 nM | 17.1 nM
ACAUGUAAUGCAGGAUAUCUGACACAUGAGGAUCACCCAUGUGACCAGAGGAAUUGCUAUGAGUCGGAGAAGGGUAUGUACAUG [Ex NG2 #54] (Eterna round: R96, puzzle: Exclusion NG 2) |  |  |  | 37.7 nM | 20.3 nM | 27.1 nM
UGUUGUCGCGUAGGAUAUGAGGAUCACCCAUAUAAAGGAUAUGAAAAGAAGGUUCUGAGGAUUACCCAGAAGGACGGGACAACU [pwkr exNG2 2xF5 2xFMN.17] (Eterna round: R96, puzzle: Exclusion NG 2) |  |  |  | 207 nM | 35 nM | 48.7 nM
GAUUCGGGAGGAUAUACAUGAGGAUCACCCAUGUGUAUAUAAUAUGUUAAGUUAUCAUGUAGAAGGUUUGGGUC [-16.5, -16.2 kcal, 30% A] (Eterna round: R97, puzzle: Exclusion 3) |  |  |  | 38 nM |  | 49 nM
GUAGAGUAAGGAUAUGGAGAAUAGGAUAGAAUGGUUAGAAUCUAGAAGGUACAUGAGGAUCACCCAUGUAAUGU [Excluse me!!!! 9 - Jieux - Exclusion 4] (puzzle: Exclusion 4) |  | 21.2 nM |  |  |  | 
